The target in assay [1] is T1, human TL1A (Fitzgerald, Prod. #30R-AT070) (human, UniProt O95150 72-251, limits assumed, biotinylated with EZ-Link Sulfo-NHS-LC-Biotin where used as soluble antigen).
T1 construct: also called TNFSF15; biotinylated human TL1A
T1 sequence (looked up): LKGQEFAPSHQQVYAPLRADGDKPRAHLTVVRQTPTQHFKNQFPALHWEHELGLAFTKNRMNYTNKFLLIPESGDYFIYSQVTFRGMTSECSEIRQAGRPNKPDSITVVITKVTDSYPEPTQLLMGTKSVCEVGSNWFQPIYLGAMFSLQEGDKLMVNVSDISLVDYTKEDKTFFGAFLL
Put plainly: capture lift screen and Fab ELISA on coated TL1A. For orientation: An ELISA detects its analyte on a solid surface through an enzyme-linked reagent.

For assay [2], the target named is T2, Fas/TNFSF6 (R&D Systems, cat. no. 126-FL/CF) (UniProt P48023 134-281).
T2 sequence (looked up): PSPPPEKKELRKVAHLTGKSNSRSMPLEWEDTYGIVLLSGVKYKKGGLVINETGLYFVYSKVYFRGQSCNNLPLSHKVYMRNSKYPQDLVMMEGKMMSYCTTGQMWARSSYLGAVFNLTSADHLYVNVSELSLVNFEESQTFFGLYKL
The assay is described as follows: ELISA, antigen coated at 1 µg/ml, Fab titrated. As for the experimental part: (§1) Next, all the Fab variants were characterized for their selectivity for human TL1A relative to other TNFSF members TRAIL, LIGHT and Fas. […] The plate was washed 3 times with PBS-T and blocked with 100 μl of 1% BSA/PBS. The block was discarded and the Fab variants or control antibodies (Fas/TNFSF6, R&D Systems, cat. no. AF126; TRAIL/TNFSF10, R&D Systems, cat. no. AF375; LIGHT/TNFSF14, R&D Systems, cat. no. AF664) were titrated in 50 μl 1% BSA/PBS and incubated for 1 h at 25° C. The plate was washed 3 times with PBS-T and secondary HRP-conjugated antibody (diluted 5,000-fold in 1% BSA/PBS) was added for 1 h at 25° C. The plate was washed 3 times with PBS-T and developed.

Assay [3] deals with LIGHT/TNFSF14 (R&D Systems, cat. no. 664-LI/CF) (UniProt O43557 74-240). The assay is described as follows: ELISA, antigen coated at 1 µg/ml, Fab titrated. As for the experimental part:
as §1

Assay [4] has as its target TRAIL/TNFSF10 (R&D Systems, cat. no. 375-TL/CF) (UniProt P50591 114-281). Put plainly: ELISA, antigen coated at 1 µg/ml, Fab titrated. The method, then: as §1

TRAIL/TNFSF10 (R&D Systems, cat. no. 375-TL/CF), sequence (P50591 114-281 limits assumed): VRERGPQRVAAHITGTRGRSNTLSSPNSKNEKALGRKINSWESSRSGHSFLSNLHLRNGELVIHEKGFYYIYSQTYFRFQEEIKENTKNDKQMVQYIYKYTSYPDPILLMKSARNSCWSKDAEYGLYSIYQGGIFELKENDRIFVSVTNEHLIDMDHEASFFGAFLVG
LIGHT/TNFSF14 (R&D Systems, cat. no. 664-LI/CF), sequence (O43557 74-240 limits assumed): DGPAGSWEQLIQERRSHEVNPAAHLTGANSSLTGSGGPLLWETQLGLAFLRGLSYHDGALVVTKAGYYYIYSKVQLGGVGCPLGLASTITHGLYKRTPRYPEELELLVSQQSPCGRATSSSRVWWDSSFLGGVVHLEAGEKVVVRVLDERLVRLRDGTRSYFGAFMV

B1: 18-7 (CDR-grafted LC) Fab (Fab, V domains shown)
VH: QVQLVQSGAEVKKPGASVKLSCKASGFDIQDTYMHWVRQAPGQGLEWMGRIDPASGHTKYDPKFQVRVTMTRDTSTSTVYMELSSLRSEDTAVYYCSRSGGLPDVWGQGTTVTVSS
VL: EIVLTQSPGTLSLSPGERATLSCRASSSVSYMYWYQQKPGQAPRLLIYATSNLASGIPDRFSGSGSGTDFTLTISRLEPEDFAVYYCQQWSGNPRTFGGGTKLEIK
notes: Fab; also called clone 18-7
Take B1: the binding result in assay [1] was “binds”.

B2: Clone 46 Fab (Fab, V domains shown)
VH: QVQLVQSGAEVKKPGASVKVSCKASGFDIQDTYMHWVRQAPGQGLEWMGRIEPASGHVKYSPKFQVRVTMTRDTSTSTVYMELSSLRSEDTAVYYCARSGGLPDWWGQGTTVTVSS
VL: EIVLTQSPGTLSLSPGERATLSCRASSSVSYMYWYQQKPGQAPRLLIYATSNLASGIPDRFSGSGSGTDFTLTISRLEPEDFAVYYCQQWEGNPRTFGGGTKLEIK
notes: Fab
Regarding B2, the binding result in assay [2], in assay [3] and in assay [4] was “no binding” each time.

B3: clone 1-3 Fab (12835 framework variant) (Fab, V domains shown)
VH: QVQLVQSGAEVKKPGASVKLSCKASGFDIQDTYMHWVRQAPGQGLEWMGRIDPASGHTKYDPKFQVRVTMTTDTSTSTVYMELSSLRSEDTAVYYCSRSGGLPDVWGQGTTVTVSS
VL: EIVLTQSPGTLSLSPGERVTMSCRASSSVSYMYWYQQKPGQAPRPWIYATSNLASGIPDRFSGSGSGTDYTLTISRLEPEDFAVYYCQQWSGNPRTFGGGTKLEIK
notes: Fab
As to B3, the binding result in assay [1] was “binds”.

B4: Clone 47 Fab (Fab, V domains shown)
VH: QVQLVQSGAEVKKPGASVKVSCKASGFDIQDTYMHWVRQAPGQGLEWMGRIEPASGHVKYDPKFQTRVTMTRDTSTSTVYMELSSLRSEDTAVYYCARSGGLPDWWGQGTTVTVSS
VL: EIVLTQSPGTLSLSPGERATLSCRASSSVSYMYWYQQKPGQAPRLLIYATSNLASGIPDRFSGSGSGTDFTLTISRLEPEDFAVYYCQQWEGNPRTFGGGTKLEIK
notes: Fab; also called variant 47
With B4, the binding result in assay [2], in assay [3] and in assay [4] was “no binding” in each case.

B5: 12835 (humanized 5C3D11) Fab (Fab, V domains shown)
VH: QVQLVQSGAEVKKPGASVKLSCKASGFDIQDTYMHWVRQAPGQGLEWMGRIDPASGHTKYDPKFQVRVTMTTDTSTSTVYMELSSLRSEDTAVYYCSRSGGLPDVWGQGTTVTVSS
VL: EIVLTQSPGTLSLSPGERVTMSCRASSSVSYMYWYQQKPGQAPRPWIYATSNLASGVPDRFSGSGSGTDYTLTISRLEPEDFAVYYCQQWSGNPRTFGGGTKLEIK
notes: Fab
In the case of B5, the binding result in assay [1] is “binds”.

B6: clone 1-4 Fab (12835 framework variant) (Fab, V domains shown)
VH: QVQLVQSGAEVKKPGASVKLSCKASGFDIQDTYMHWVRQAPGQGLEWMGRIDPASGHTKYDPKFQVRVTMTTDTSTSTVYMELSSLRSEDTAVYYCSRSGGLPDVWGQGTTVTVSS
VL: EIVLTQSPGTLSLSPGERVTMSCRASSSVSYMYWYQQKPGQAPRLWIYATSNLASGIPDRFSGSGSGTDYTLTISRLEPEDFAVYYCQQWSGNPRTFGGGTKLEIK
notes: Fab
Regarding B6, the binding result in assay [1] is “binds”.

B7: Clone 2 Fab (Fab, V domains shown)
VH: QVQLVQSGAEVKKPGASVKVSCKASGFDIQDTYMHWVRQAPGQGLEWMGRIEPASGHIKYSPKFQGRVTMTRDTSTSTVYMELSSLRSEDTAVYYCARSGGLPDWWGQGTTVTVSS
VL: EIVLTQSPGTLSLSPGERATLSCRASSSVSYMYWYQQKPGQAPRLLIYATSNLASGIPDRFSGSGSGTDFTLTISRLEPEDFAVYYCQQWEGNPRTFGGGTKLEIK
notes: Fab
As for B7, the binding result in assay [2], in assay [3] and in assay [4] was “no binding” throughout.

B8: Clone 17L Fab (Fab, V domains shown)
VH: QVQLVQSGAEVKKPGASVKVSCKASGFDIQDTYMHWVRQAPGQGLEWMGRIDPASGHLKYDPKFQVRVTMTRDTSTSTVYMELSSLRSEDTAVYYCARSGGLPDMWGQGTTVTVSS
VL: EIVLTQSPGTLSLSPGERATLSCRASSSVSYMYWYQQKPGQAPRLLIYATSNLASGIPDRFSGSGSGTDFTLTISRLEPEDFAVYYCQQWQGNPRTFGGGTKLEIK
notes: Fab
B8: the binding result in assay [2], in assay [3] and in assay [4] was “no binding” throughout.

B9: clone 2-3 Fab (12835 framework variant) (Fab, V domains shown)
VH: QVQLVQSGAEVKKPGASVKLSCKASGFDIQDTYMHWVRQAPGQGLEWMGRIDPASGHTKYDPKFQVRVTMTTDTSTSTVYMELSSLRSEDTAVYYCSRSGGLPDVWGQGTTVTVSS
VL: EIVLTQSPGTLSLSPGERATLSCRASSSVSYMYWYQQKPGQAPRPWIYATSNLASGIPDRFSGSGSGTDYTLTISRLEPEDFAVYYCQQWSGNPRTFGGGTKLEIK
notes: Fab
B9: in assay [1], the binding result is “binds”.

B10: 21-3 (CDR-grafted HC) Fab (Fab, V domains shown)
VH: QVQLVQSGAEVKKPGASVKVSCKASGFDIQDTYMHWVRQAPGQGLEWMGRIDPASGHTKYDPKFQVRVTMTRDTSTSTVYMELSSLRSEDTAVYYCARSGGLPDVWGQGTTVTVSS
VL: EIVLTQSPGTLSLSPGERATLSCRASSSVSYMYWYQQKPGQAPRLLIYATSNLASGVPDRFSGSGSGTDYTLTISRLEPEDFAVYYCQQWSGNPRTFGGGTKLEIK
notes: Fab; also called clone 21-3
Regarding B10, the binding result in assay [1] is “binds”.

B11: Clone 52 Fab (Fab, V domains shown)
VH: QVQLVQSGAEVKKPGASVKVSCKASGFDIQDTYMHWVRQAPGQGLEWMGRIEPASGHIKYSPKFQGRVTMTRDTSTSTVYMELSSLRSEDTAVYYCARSGGLPDWWGQGTTVTVSS
VL: EIVLTQSPGTLSLSPGERATLSCGASSSVSYMYWYQQKPGQAPRLLIYATSNLASGIPDRFSGSGSGTDFTLTISRLEPEDFAVYYCQQWEGNPRTFGGGTKLEIK
notes: Fab
Consider B11, for which the binding result in assay [2], in assay [3] and in assay [4] was “no binding” throughout.

B12: Clone 14 Fab (Fab, V domains shown)
VH: QVQLVQSGAEVKKPGASVKVSCKASGFDIQDTYMHWVRQAPGQGLEWMGRIDPASGHIKYDPKFQKRVTMTRDTSTSTVYMELSSLRSEDTAVYYCARSGGLPDMWGQGTTVTVSS
VL: EIVLTQSPGTLSLSPGERATLSCRASSSVSYMYWYQQKPGQAPRLLIYATSNLASGIPDRFSGSGSGTDFTLTISRLEPEDFAVYYCQQWQGNPRTFGGGTKLEIK
notes: Fab; also called variant 14
Turning to B12, the binding result in assay [2], in assay [3] and in assay [4] was “no binding” in each case.

B13: Clone X Fab (Fab, V domains shown)
VH: QVQLVQSGAEVKKPGASVKVSCKASGFDIQDTYMHWVRQAPGQGLEWMGRIDPASGHTKYDPKFQGRATITTDTSASTAYLQLSSLRSEDTAVYYCARSGGLPDFWGQGTTVTVSS
VL: EIVLTQSPGTLSLSPGERATLSCRASSSVSYMYWYQQKPGQAPRLLIYATSNLASGIPDRFSGSGSGTDFTLTISRLEPEDFAVYYCQQWSGNPRTFGGGTKLEIK
notes: Fab
With B13, the binding result in assay [2], in assay [3] and in assay [4] was “no binding” throughout.

B14: Clone 23 Fab (Fab, V domains shown)
VH: QVQLVQSGAEVKKPGASVKVSCKASGFDIQDTYMHWVRQAPGQGLEWMGRIDPASGHLKYDPKFQNRVTMTRDTSTSTVYMELSSLRSEDTAVYYCARSGGLPDKWGQGTTVTVSS
VL: EIVLTQSPGTLSLSPGERATLSCRASSSVSYMYWYQQKPGQAPRLLIYATSNLASGIPDRFSGSGSGTDFTLTISRLEPEDFAVYYCQQWEGNPRTFGGGTKLEIK
notes: Fab; also called variant 23
As for B14, the binding result in assay [2], in assay [3] and in assay [4] was “no binding” each time.

B15: Clone 53 Fab (Fab, V domains shown)
VH: QVQLVQSGAEVKKPGASVKVSCKASGFDIQDTYMHWVRQAPGQGLEWMGRIEPASGHLKYDPKFQERVTMTRDTSTSTVYMELSSLRSEDTAVYYCARSGGLPDKWGQGTTVTVSS
VL: EIVLTQSPGTLSLSPGERATLSCRASSSVSYMYWYQQKPGQAPRLLIYATSNLASGIPDRFSGSGSGTDFTLTISRLEPEDFAVYYCQQWEGNPRTFGGGTKLEIK
notes: Fab; also called variant 53
As for B15, the binding result in assay [2], in assay [3] and in assay [4] was “no binding” throughout.

B16: Clone 34 Fab (Fab, V domains shown)
VH: QVQLVQSGAEVKKPGASVKVSCKASGFDIQDTYMHWVRQAPGQGLEWMGRIEPASGHIKYDPKFQGRVTMTRDTSTSTVYMELSSLRSEDTAVYYCARSGGLPDWWGQGTTVTVSS
VL: EIVLTQSPGTLSLSPGERATLSCRASSSVSYMYWYQQKPGQAPRLLIYATSNLASGIPDRFSGSGSGTDFTLTISRLEPEDFAVYYCQQWEGNPRTFGGGTKLEIK
notes: Fab; also called variant 34
Regarding B16, the binding result in assay [2], in assay [3] and in assay [4] was “no binding” each time.

The record behind these values is patent US20240368263A1 (PROMETHEUS BIOSCIENCES, published 2024).
